According to patent US20140341809A1:

How the values were obtained:
…/HLA-A2 [1] = experiment: SPR, Biacore 3000, 25 C
…/HLA-A2 [2] = experiment: SPR, Biacore 3000, 25 C (FIG. 2B shows a kinetic titration for this pair)
…/HLA-A2 [3] = experiment: SPR, against wild-type DMF5

Substance	Kd (…/HLA-A2 [1])	Kd (…/HLA-A2 [2])	ΔΔG (…/HLA-A2 [3])
high-affinity DMF5 variant αD27Y/βL95W (TCR)	1700 nM	24 nM	
DMF5 TCR αD27W mutant	680 nM		-1.6 kcal/mol
